The DeepSol protein solubility set

Assay: soluble on expression in E. coli; label from the status in PepcDB or PDB records

Sequence	soluble on expression in E. coli
MSVVKSIELVLPEDRIYLAGSSIKGQVILTLNSTLVDPIVKVELVGRGYVEWSEEAGASCDYSRNVICNNKADYVHKTKTFPVEDNWLSAGSHTFDFHFNLPPRLPSTFTSKFGHVFYFVQASCMGREHILAKKRMYLLVQGTSTFHKETPFQNPLFVEAEEKVSYNCCRQGTVCLQIQMERNTFTPGEKVVFTTEINNQTSKCIKTVVFALYAHIQYEGFTPSAERRSRLDSSELLRQEANTPVTRFNTTKVVSTFNLPLLLSVSSSTQDGEIMHTRYELVTTVHLPWSLTSLKAKVPIIITSASVDSAICQLSEDGVLPVNPDHQN	soluble
MVEVVGVRFREAGHIYYFAPGKSEYIYNEKVLVESQQSKQLATVAIPKKTVDSDDLPEDLKPILNKATANDLEKEQKNLADAEAAKSIANEKIRAHDLKMKLVRVEYTFDRSKMIFYFTADGRIDFRELVKDLAAIFRTRIELRQIGVRDEAKILGGIGPCGRQLCCSTFLGDFMPVSIKMAKDQGLSLNPVKISGLCGRLMCCLKYENDEYEAAKKELPDYGKEVITPDGKGKVVGLNLLSRIVKVRLHGREIAADYDYEEIKEATAKVAAEKGDQNGLEHHHHHH	soluble
MSLGQVFYYQPEQVHLSFGESPLEIVVTWSTMTATNESIVEYGIGGLILSATGTETKFVDGGPAKRTQYIHRVVLRDLQPSSRYEYHCGSRWGWSAEFYFHTTPAGTDWSPSLAIFGDMGNENAQSMARLQEDTQRHMYDAILHVGDFAYDMNTDDALVGDQFMNQIQSIAAYTPYMVCAGNHEEKYNFSNYRARFSMPGGTENIMYSFNLGPVHFIGFSTEVYYFMNYGLKPLVKQYEWLRRDLEEANRPENRKLRPWIVTYGHRPMYCSNDNDNDCTHSETLVRVGLPFMHWFGLEDLFYEHGVDVEIWAHEHSYERLFPIYDYKVYNGSYEEPYRNPRAPVHLVTGSAGCKEGREPFINKIPTWSAIHSRDYGYTRMKAINGSHLYFEQISVDKEGAVIDSFTIIKDEGHHHHHH	soluble
MAHHHHHHMEEGAPTPAAPVGEDQEVAAAPATEEPASIMQVENTNFNWADDDIQFQIRQPQYAAEYPVSVLENLARNVTFKVPEDQNTMTSAIEALARERQAFEQMKRNHEDAMKSREVELNAQEATLQARERQLHANTETLAAERQQLILQQSQFRAQQAQAQAQSQAQAQTQSQPRTSSQTQSPAAQVSPSPAQAAQPAHAPQLQHQMPPPHQQPQPRSGNVYMGGGYGAQEWQPDQRTWGNEGAMGAPGFDMYQGAYPGSYAQRNYHMAGGHRGQMRSGNLPQQQFPGNRMQPMMPPPQQYSRSMAPLGAARQQQMDMNFGGRSQQSYNPAPNTGYPQRSAQW	soluble
QLPSYRFNPNNHQSEQTLCVVCMCDFESRQLLRVLPCNHEFHAKCVDKWLKANRTCPICRAD	soluble
MGYIEDMRNLVGNHPLILIGSHAIILNEKDEVLLQLRTDFNRWGIIGGALEYNETLEDALKREVFEETGLIIKNPELFRTYSGPDFFQIYPNGDQVHGVLVVYICREFHGELVCDHTESKELRFFSLDELPNNLPPVIEKIITDYLKK	not soluble
MSGARLHTLLPELTTRQPVMVVGAAVIDVIADAYALPWRGCDIELKQQSVNVGGCALNIAVALKRLGIEAGNALPLGQGVWAEIIRNRMAKEGLISLIDNAESDNGWCLALVEPDGERTFMSFSGVENQWNRQWLARLTVAPGNLLYFSGYQLASPCGELLVEWLEKLQDVTPFIDFCPRIGDIPDALLARIMACRPLVSLNRQEAEIAAERFALSAEITTLGKQWQEKFAAPLIVRLDKEGAWYFSNDASGCIPAFPTQVVDTIGAGDSHAGGVLAGLASGLPLADAVLLGNAVASWVVGHRGGDCAPTREELLLAHKNV	not soluble
MPELPEVETTRRRLRPLVLGQTLRQVVHRDPARYRNTALAEGRRILEVDRRGKFLLFALEGGVELVAHLGMTGGFRLEPTPHTRAALVLEGRTLYFHDPRRFGRLFGVRRGDYREIPLLLRLGPEPLSEAFAFPGFFRGLKESARPLKALLLDQRLAAGVGNIYADEALFRARLSPFRPARSLTEEEARRLYRALREVLAEAVELGGSTLSDQSYRQPDGLPGGFQTRHAVYGREGLPCPACGRPVERRVVAGRGTHFCPTCQGEGP	soluble
MASKKREVQLQSVVNSQNLWDEMLLNKGLTVIDVYQAWCGPCKAVQSLFRKLKNELNEDEILHFVVAEADNIVTLQPFRDKCEPVFLFSLNGKIIAKIQGANAPLINRKVITLIDEERKIVAGEMDRPQYVEIPLVDAIDEEYGEVQYESAAEVYNMAIIKPDAVLMRKNIEVREKIAKEGFVIEIQENLILPEEVVREFYTHIADQPDFEEFVVSMTNGLSCVLIVSQEDSEVIQEETLPQTDTEEEPGVLEEPHVRFAPVMIKKKRDSLQEYMDRQYMSDYCDVEDDAVKVFKLIDILFPDFKTMKSTNVQTTLALLHPDICEEEKDDVLNVIHNEGFTILMQRQIVLSEEEARTVCKIHENEEYFDNLIGHMTSNHSYVLALRRENGVEYWKTLIGPKTIEEAYASHPQSLCVQFASGNFPTNQFYGSSSKAAAEKEIAHFFPPQSTLALIKPHVTHKERIHRSSRR	not soluble
PEFMVTTEPALADLQEQLYNGNEKSQLAAMSTLSTAGTEGYHLLQEFLKDSATFSPPPAPWIRGQAYRLLFHSPEASVQAFLQQHYPQGVIPLRSDRGVDYQELAKLFVAEKFEAADRLTTQKLCELAGPLAQKRRWLYFTEVEQLPIPDLQTIDQLWLAFSLGRFGYSVQRQLWLGCGQNWDRLWEKIGWRQGKRWPRYPNEFIWDLSAPRGHLPLTNQLRGVQVLNALLNHPAWTA	soluble
SGTPPGLQTDCEALLSRFQETDSVRFEDFTELWRNMKFGTIFCGRMRNLEKNMFTKEALALAWRYFLPPYTFQIRVGALYLLYGLYNTQLCQPKQKIRVALKDWDEVLKFQQDLVNAQHFDAAYIFRKLRLDRAFHFTAMPKLLSYRMKKKIHRAEVTEEFKDPSDRVMKLITSDVLEEMLNVHDHYQNMKHVISVDKSKPDKALSLIKDDFFDNIKNIVLEHQQWHKDRKNPSLKSKTNDGEEKMEGNSQETERCERAESLAKIKSKAFSVVIQASKSRRHRQVKLDSSDSDSASGQGQVKATRKKEKKERLKPAGRKMSLRNKGNVQNIHKEDKPLSLSMPVITEEEENESLSGTEFTASKKRRKH	soluble
MAGLFDKQADLYLDARPNYPSEWFSKLADLTDHHGLAWDAATGNGQAALAVAEHYESVVATDVSESQLKLATPHPKINYRHTPTSMTDDELVELIGGENSVDLITVAQGVHWFDLPRFYSVATRLLRKPGGIIAVWGYNDVIVSPEFDAVQYRLHATTLPFWKYPYIQHIFDSYEALPFPFENVGMGSEGEPLKLEMPKTTSFEGIIRMFKSWSAIVTAREKGVELLPESLVRELETAWGGSDLVRSVVYKAFMIAGKVRV	soluble
MGSDKIHHHHHHMDELVDGERESGRAALGRTLRLLREKSGKTLGQLAGETSYDKSYLYRLETGERLSKRAVMEDLDRYHGSGDLLVRLWRDARKDVIKDKYKAFMELEATARVMWKFQLRVPGLLQTEDYARVVLSGLSRAQTTAGNGEEVEEQVAARVGRQEMLHRQPAPSVRVILDEGALRRRVPKEKVWADQLVHLVDVAELASVTLQVLPFTAGVHDLMNSDLTLMWQRVGEPVAYVEGNGFGELVDDPDKVLSYRLSYDLVRDAALTPAESTTFIKRLLEECRS	not soluble
MPDLAGDLAAVLPPRPDTPGGEALPTDSGDVLRQGDILGRRVQSVRLGWDQLTSVQLWMCEQVLGIESAAEDEKPRRTRADKWALNYQAAKQFYEREGHLQVARKWVERIVIGGDGDGGDDKEEREHKLGARIGIQRSRAATPTPERMELLSAIGMRWSLEHHHHHH	not soluble
ATVKQPSIGRYTGKPNPSTGKYTVSFIEGDGIGPEISKSVKKIFSAANVPIEWESCDVSPIFVNGLTTIPDPAVQSITKNLVALKGPLATPIGKGHRSLNLTLRKTFGLFANVRPAKSIEGFKTTYENVDLVLIRENTEGEYSGIEHIVCPGVVQSIKLITRDASERVIRYAFEYARAIGRPRVIVVHKSTIQRLADGLFVNVAKELSKEYPDLTLETELIDNSVLKVVTNPSAYTDAVSVCPNLYGDILSDLNSGLSAGSLGLTPSANIGHKISIFEAVHGSAPDIAGQDKANPTALLLSSVMMLNHMGLTNHADQIQNAVLSTIASGPENRTGDLAGTATTSSFTEAVIKRL	soluble
VAIDYTRRPSSPAAPQGGVSLSKVTLSKAAPSVSLTKSGERQGAMRVNLNWSTGATPQPKKTGFFAKLAAAAGGNNGIDLDLGCLYELADGSKGVVQALGNSFGSLQAPPFIKLDADDRTGTVTGGENLHINLDRPEMFKRILIFAMIYDGAPNWAAVDGVVTLYPTSGPEVEVRLDTSNSSARICAIAMLQNTGQGITVTREVKYIEGSQADLDKTYSWGMKWAAGRK	not soluble
MAAAKVALTKRADPAELRTIFLKYASIEKNGEFFMSPNDFVTRYLNIFGESQPNPKTVELLSGVVDQTKDGLISFQEFVAFESVLCAPDALFMVAFQLFDKAGKGEVTFEDVKQVFGQTTIHQHIPFNWDSEFVQLHFGKERKRHLTYAEFTQFLLEIQLEHAKQAFVQRDNARTGRVTAIDFRDIMVTIRPHVLTPFVEECLVAAAGGTTSHQVSFSYFNGFNSLLNNMELIRKIYSTLAGTRKDVEVTKEEFVLAAQKFGQVTPMEVDILFQLADLYEPRGRMTLADIERIAPLEEGTLPFNLAEAQRQKASGDSARPVLLQVAESAYRFGLGSVAGAVGATAVYPIDLVKTRMQNQRSTGSFVGELMYKNSFDCFKKVLRYEGFFGLYRGLLPQLLGVAPEKAIKLTVNDFVRDKFMHKDGSVPLAAEILAGGCAGGSQVIFTNPLEIVKIRLQVAGEITTGPRVSALSVVRDLGFFGIYKGAKACFLRDIPFSAIYFPCYAHVKASFANEDGQVSPGSLLLAGAIAGMPAASLVTPADVIKTRLQVAARAGQTTYSGVIDCFRKILREEGPKALWKGAGARVFRSSPQFGVTLLTYELLQRWFYIDFGGVKPMGSEPVPKSRINLPAPNPDHVGGYKLAVATFAGIENKFGLYLPLFKPSVSTSKAIGGGP	not soluble
MSTAKAPTLPASIFRAYDIRGVVGDTLTAETAYWIGRAIGSESLARGEPCVAVGRDGRLSGPELVKQLIQGLVDCGCQVSDVGMVPTPVLYYAANVLEGKSGVMLTGSHNPPDYNGFKIVVAGETLANEQIQALRERIEKNDLASGVGSVEQVDILPRYFKQIRDDIAMAKPMKVVVDCGNGVAGVIAPQLIEALGCSVIPLYCEVDGNFPNHHPDPGKPENLKDLIAKVKAENADLGLAFDGDGDRVGVVTNTGTIIYPDRLLMLFAKDVVSRNPGADIIFDVKCTRRLIALISGYGGRPVMWKTGHSLIKKKMKETGALLAGEMSGHVFFKERWFGFDDGIYSAARLLEILSQDQRDSEHVFSAFPSDISTPEINITVTEDSKFAIIEALQRDAQWGEGNITTLDGVRVDYPKGWGLVRASNTTPVLVLRFEADTEEELERIKTVFRNQLKAVDSSLPVPF	soluble
IPRFGVKTEQEDVLAKELEDVNKWGLHVFRIAELSGNRPLTVIMHTIFQERDLLKTFKIPVDTLITYLMTLEDHYHADVAYHNNIHAADVVQSTHVLLSTPALEAVFTDLEILAAIFASAIHDVDHPGVSNQFLINTNSELALMYNDSSVLENHHLAVGFKLLQEENCDIFQNLTKKQRQSLRKMVIDIVLATDMSKHMNLLADLKTMVETKKVTSSGVLLLDNYSDRIQVLQNMVHCADLSNPTKPLQLYRQWTDRIMEEFFRQGDRERERGMEISPMCDKHNASVEKSQVGFIDYIVHPLWETWADLVHPDAQDILDTLEDNREWYQSTIPQSPSPAPDDPEEGRQGQTEKFQFELTLE	soluble
